In paper PMC6202329 one finds response data, which are given here for four substances.

Common to all, as to test: complementary split luciferase
What all share (details): n = 5; parent: est. 1.0; read off a plot

The target of test [1] is ARAF(DDEE/L358M) fused to Nluc or Cluc (UniProt P10398).
Test [2] has as its target ARAF(DDEE/L358M/APE) fused to Nluc or Cluc (UniProt P10398).
Test [3] deals with ARAF(DDEE/L358M/R362H/APE) fused to Nluc or Cluc (UniProt P10398).
Test [4] has as its target ARAF(DDEE/L358M/R362H) fused to Nluc or Cluc (UniProt P10398).

For “ARAF (wild type) fused to Nluc or Cluc (from UniProt P10398) DGEE; L358M”, the response in test [1] worked out at 3.3. “ARAF (wild type) fused to Nluc or Cluc (from UniProt P10398) DGEE; L358M; APE”: in test [2], the response amounted to 5.4.

Turning to “ARAF (wild type) fused to Nluc or Cluc (from UniProt P10398) DGEE; L358M; APE; R362H”, the response in test [3] was 3.6. As for “ARAF (wild type) fused to Nluc or Cluc (from UniProt P10398) DGEE; L358M; R362H”, in test [4], the response is 1.1.
